Results reported in article PMC5045296.

What was measured:
[1] = molecular target: tubulin (alpha/beta heterodimer), polymerised into microtubules or as free tubulin-dimers (porcine) (UniProt P02550)
[2] = molecular target: tubulin (alpha/beta heterodimer), polymerised into microtubules or as free tubulin-dimers (porcine) (UniProt P02550); assay: co-sedimentation; KIF19A protein (printed 'Two micromoles') with 0-40 μM taxol-stabilized MTs in PEM buffer, 25°C, 15 min, AMP-PNP; 38,000 xg 10 min; SDS-PAGE band intensities; one site binding model
[3] = molecular target: tubulin (alpha/beta heterodimer), polymerised into microtubules or as free tubulin-dimers (porcine) (UniProt P02550); remark: listed apart in the source
[4] = molecular target: tubulin (alpha/beta heterodimer), polymerised into microtubules or as free tubulin-dimers (porcine) (UniProt P02550); remark: listed apart in the source
[5] = molecular target: tubulin (alpha/beta heterodimer), polymerised into microtubules or as free tubulin-dimers (porcine) (UniProt P02550); remark: listed apart in the source
[6] = molecular target: tubulin (alpha/beta heterodimer), polymerised into microtubules or as free tubulin-dimers (porcine) (UniProt P02550); remark: listed apart in the source

B1: KIF19A-353 (mouse KIF19A motor domain, monomeric construct) (domain or fragment)
chain: MKDSGDSKDQQLMVALRVRPISVAELEEGATLIAHKMDEQMVVLMDPMEDPDDILRAHRSREKSYLFDVAFDFTATQEMVYQATTKSLIEGVISGYNATVFAYGPTGCGKTYTMLGTDHEPGIYVRTLNDLFRAIEETSNDMEYEVSMSYLEIYNEMIRDLLNPALGYLELREDSKGVIQVAGITEVSTINAKEIMQLLMKGNRQRTQEPTAANQTSSRSHAVLQVAVRQRSRVKNILQEVRQGRLFMIDLAGSERASQTQNRGQRMKEGAHINRSLLALGNCINALSDKGSNKYINYRDSKLTRLLKDSLGGNSRTVMIAHISPASTAFEESRNTLTYAGRAKNIRTRVKQN
MT-stimulated steady-state ATPase, maximum rate [1]: 1.43 s⁻¹ | steady-state ATPase stimulated by free tubulin-dimers, maximum rate [1]: 0.8 s⁻¹ | Kd [2]: 0.6 µM

B2: KIF19A-353 K2A (K290 and K294 replaced with alanine) (domain or fragment)
chain: MKDSGDSKDQQLMVALRVRPISVAELEEGATLIAHKMDEQMVVLMDPMEDPDDILRAHRSREKSYLFDVAFDFTATQEMVYQATTKSLIEGVISGYNATVFAYGPTGCGKTYTMLGTDHEPGIYVRTLNDLFRAIEETSNDMEYEVSMSYLEIYNEMIRDLLNPALGYLELREDSKGVIQVAGITEVSTINAKEIMQLLMKGNRQRTQEPTAANQTSSRSHAVLQVAVRQRSRVKNILQEVRQGRLFMIDLAGSERASQTQNRGQRMKEGAHINRSLLALGNCINALSDAGSNAYINYRDSKLTRLLKDSLGGNSRTVMIAHISPASTAFEESRNTLTYAGRAKNIRTRVKQN
EC50 of depolymerization of GMPCPP-stabilized MTs (5 mM ATP) [3]: 0.678 µM | MT depolymerization speed (TIRF, 125 nM motor) [3]: 2 nm/s | Kd [2]: 3 µM

B3: KIF19A-353 PC2A (R56A-H58A-R59A-R61A) (domain or fragment)
chain: MKDSGDSKDQQLMVALRVRPISVAELEEGATLIAHKMDEQMVVLMDPMEDPDDILAAAASAEKSYLFDVAFDFTATQEMVYQATTKSLIEGVISGYNATVFAYGPTGCGKTYTMLGTDHEPGIYVRTLNDLFRAIEETSNDMEYEVSMSYLEIYNEMIRDLLNPALGYLELREDSKGVIQVAGITEVSTINAKEIMQLLMKGNRQRTQEPTAANQTSSRSHAVLQVAVRQRSRVKNILQEVRQGRLFMIDLAGSERASQTQNRGQRMKEGAHINRSLLALGNCINALSDKGSNKYINYRDSKLTRLLKDSLGGNSRTVMIAHISPASTAFEESRNTLTYAGRAKNIRTRVKQN
Kd [2]: 5.8 µM | K (M, MT) of the MT-stimulated ATPase, against 353WT (times that of 353WT) [4]: 30

B4: KIF19A-353 GS2R (G291 and S292 mutated to arginine) (domain or fragment)
chain: MKDSGDSKDQQLMVALRVRPISVAELEEGATLIAHKMDEQMVVLMDPMEDPDDILRAHRSREKSYLFDVAFDFTATQEMVYQATTKSLIEGVISGYNATVFAYGPTGCGKTYTMLGTDHEPGIYVRTLNDLFRAIEETSNDMEYEVSMSYLEIYNEMIRDLLNPALGYLELREDSKGVIQVAGITEVSTINAKEIMQLLMKGNRQRTQEPTAANQTSSRSHAVLQVAVRQRSRVKNILQEVRQGRLFMIDLAGSERASQTQNRGQRMKEGAHINRSLLALGNCINALSDKRRNKYINYRDSKLTRLLKDSLGGNSRTVMIAHISPASTAFEESRNTLTYAGRAKNIRTRVKQN
Michaelis-Menten constant of the ATPase for MTs and for tubulins, against 353WT (times lower than 353WT) [5]: 4 | Kd [2]: 0.6 µM

B5: KIF19A-353 N297P (domain or fragment)
chain: MKDSGDSKDQQLMVALRVRPISVAELEEGATLIAHKMDEQMVVLMDPMEDPDDILRAHRSREKSYLFDVAFDFTATQEMVYQATTKSLIEGVISGYNATVFAYGPTGCGKTYTMLGTDHEPGIYVRTLNDLFRAIEETSNDMEYEVSMSYLEIYNEMIRDLLNPALGYLELREDSKGVIQVAGITEVSTINAKEIMQLLMKGNRQRTQEPTAANQTSSRSHAVLQVAVRQRSRVKNILQEVRQGRLFMIDLAGSERASQTQNRGQRMKEGAHINRSLLALGNCINALSDKGSNKYIPYRDSKLTRLLKDSLGGNSRTVMIAHISPASTAFEESRNTLTYAGRAKNIRTRVKQN
tubulin-stimulated ATPase rate, against the wild type (of the wild type) [6]: 0.5

B6: KIF19A-353 L55A (domain or fragment)
chain: MKDSGDSKDQQLMVALRVRPISVAELEEGATLIAHKMDEQMVVLMDPMEDPDDIARAHRSREKSYLFDVAFDFTATQEMVYQATTKSLIEGVISGYNATVFAYGPTGCGKTYTMLGTDHEPGIYVRTLNDLFRAIEETSNDMEYEVSMSYLEIYNEMIRDLLNPALGYLELREDSKGVIQVAGITEVSTINAKEIMQLLMKGNRQRTQEPTAANQTSSRSHAVLQVAVRQRSRVKNILQEVRQGRLFMIDLAGSERASQTQNRGQRMKEGAHINRSLLALGNCINALSDKGSNKYINYRDSKLTRLLKDSLGGNSRTVMIAHISPASTAFEESRNTLTYAGRAKNIRTRVKQN
Kd [2]: 1.6 µM
